Reference: patent publication US20050282743A1, “Molecular interactions in cells” (Arbor Vita Corporation, priority 2001, published 2005)
pKd: −log10 of the molar value. Ends that are not written are not given here. Peptide text beside a SMILES is read from it. * marks the point of attachment. Biotin = O=C1N[C@H]2[C@H](CS[C@H]2CCCCC(=O)*)N1

Columns and labels:
Type in all cases: binding
[1] = target: T1, PDZ protein (GST-PDZ fusion) (Homo sapiens, UniProt Q13796); assay: G' assay (10 uM PL peptide), results of TABLE 7 and TABLE 12; conditions: PDZ hAPXL, PDZ Domain 1
T1 construct: made in house; host or cells: E. coli (DH5alpha, BL21 or JM109)
T1 sequence (Q13796 whole entry, the tested form may be a part): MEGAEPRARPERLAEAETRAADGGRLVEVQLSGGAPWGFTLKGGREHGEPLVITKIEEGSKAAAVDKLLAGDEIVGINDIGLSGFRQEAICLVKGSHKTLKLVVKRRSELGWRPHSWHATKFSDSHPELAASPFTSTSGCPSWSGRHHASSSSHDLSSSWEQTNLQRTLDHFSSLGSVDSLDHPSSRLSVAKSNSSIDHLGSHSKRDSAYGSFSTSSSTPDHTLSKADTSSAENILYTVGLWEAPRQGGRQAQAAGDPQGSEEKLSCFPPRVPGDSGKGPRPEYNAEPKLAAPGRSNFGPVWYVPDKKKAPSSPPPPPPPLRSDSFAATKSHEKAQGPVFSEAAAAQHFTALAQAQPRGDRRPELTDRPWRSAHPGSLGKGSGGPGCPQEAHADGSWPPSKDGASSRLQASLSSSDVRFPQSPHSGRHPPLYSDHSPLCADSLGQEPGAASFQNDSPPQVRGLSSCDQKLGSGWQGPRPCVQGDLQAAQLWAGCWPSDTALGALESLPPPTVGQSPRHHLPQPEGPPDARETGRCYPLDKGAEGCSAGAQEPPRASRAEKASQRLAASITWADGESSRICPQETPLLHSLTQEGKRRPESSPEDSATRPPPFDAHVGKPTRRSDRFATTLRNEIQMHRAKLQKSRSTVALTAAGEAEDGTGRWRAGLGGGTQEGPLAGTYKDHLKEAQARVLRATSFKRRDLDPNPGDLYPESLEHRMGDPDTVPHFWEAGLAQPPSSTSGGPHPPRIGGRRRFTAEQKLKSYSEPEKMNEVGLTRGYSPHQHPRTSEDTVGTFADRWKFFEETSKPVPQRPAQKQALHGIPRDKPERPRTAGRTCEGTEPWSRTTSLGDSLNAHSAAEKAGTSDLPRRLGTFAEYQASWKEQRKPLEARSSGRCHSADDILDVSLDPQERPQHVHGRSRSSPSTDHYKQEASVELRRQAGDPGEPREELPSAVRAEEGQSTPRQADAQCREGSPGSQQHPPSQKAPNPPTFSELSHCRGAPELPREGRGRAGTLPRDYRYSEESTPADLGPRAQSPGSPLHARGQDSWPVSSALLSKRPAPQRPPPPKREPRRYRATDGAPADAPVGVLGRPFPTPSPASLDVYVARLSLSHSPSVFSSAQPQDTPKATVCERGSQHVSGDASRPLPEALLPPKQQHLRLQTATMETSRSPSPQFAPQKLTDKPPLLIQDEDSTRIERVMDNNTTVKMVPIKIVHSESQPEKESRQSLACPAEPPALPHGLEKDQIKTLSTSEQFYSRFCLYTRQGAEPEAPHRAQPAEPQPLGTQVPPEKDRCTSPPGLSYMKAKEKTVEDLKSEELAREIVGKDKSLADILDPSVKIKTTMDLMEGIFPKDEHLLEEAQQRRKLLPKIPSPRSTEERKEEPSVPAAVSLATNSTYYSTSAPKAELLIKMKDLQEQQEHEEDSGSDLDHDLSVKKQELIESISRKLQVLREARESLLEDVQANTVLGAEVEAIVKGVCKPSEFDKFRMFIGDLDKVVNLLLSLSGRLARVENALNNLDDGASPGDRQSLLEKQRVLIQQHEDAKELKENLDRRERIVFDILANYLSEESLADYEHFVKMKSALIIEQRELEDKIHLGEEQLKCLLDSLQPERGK
Outline: (§1)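 Biotin-PL peptide (N-term label), 10 uM vs GST-PDZ; protein 5 ug/ml by default. A450 nm binned: 1 = 0-1, 2 = 1-2, 3 = 2-3, 4 = 3-4, 5 = >4 on >2 repeats, 0 = no binding.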

[2] = target: PDZ-domain polypeptide (GST/PDZ fusion protein); assay: Apparent affinity (Kd) by titration of PL peptide in the G assay; conditions: PDZ SHANK, PDZ Domain 1; read-out: Peptide Optimal Conc (Kd by titration of the PL peptide)
Outline: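 A fixed concentration of GST/PDZ fusion protein, 5 ug/ml by default, was mixed in solution with increasing labeled PL peptide (e.g. 0.1 uM-1 mM). Reaction times ranged from 10 minutes to 2 days at 4-37° C. Complexes were separated from free peptide and detected via the label as in the G assay, apparent affinity coming from the saturating concentration.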

[3] = target: T2, PDZ protein (GST-PDZ fusion) (Homo sapiens, UniProt P57105); assay: G' assay (10 uM PL peptide), results of TABLE 7 and TABLE 12; conditions: PDZ Outer Membrane, PDZ Domain 1
T2 construct: made in house; host or cells: E. coli (DH5alpha, BL21 or JM109)
T2 sequence (P57105 1-145): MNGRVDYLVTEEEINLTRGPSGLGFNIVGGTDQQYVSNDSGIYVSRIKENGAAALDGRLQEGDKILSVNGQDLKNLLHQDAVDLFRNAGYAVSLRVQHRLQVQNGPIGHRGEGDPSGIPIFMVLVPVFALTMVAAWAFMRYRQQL
Outline: as §1

[4] = target: T3, PDZ protein (GST-PDZ fusion) (Homo sapiens, UniProt Q9P202); assay: as above; conditions: PDZ KIAA1526, PDZ Domain 1
T3 construct: made in house; host or cells: E. coli (DH5alpha, BL21 or JM109)
T3 sequence (Q9P202 1-907): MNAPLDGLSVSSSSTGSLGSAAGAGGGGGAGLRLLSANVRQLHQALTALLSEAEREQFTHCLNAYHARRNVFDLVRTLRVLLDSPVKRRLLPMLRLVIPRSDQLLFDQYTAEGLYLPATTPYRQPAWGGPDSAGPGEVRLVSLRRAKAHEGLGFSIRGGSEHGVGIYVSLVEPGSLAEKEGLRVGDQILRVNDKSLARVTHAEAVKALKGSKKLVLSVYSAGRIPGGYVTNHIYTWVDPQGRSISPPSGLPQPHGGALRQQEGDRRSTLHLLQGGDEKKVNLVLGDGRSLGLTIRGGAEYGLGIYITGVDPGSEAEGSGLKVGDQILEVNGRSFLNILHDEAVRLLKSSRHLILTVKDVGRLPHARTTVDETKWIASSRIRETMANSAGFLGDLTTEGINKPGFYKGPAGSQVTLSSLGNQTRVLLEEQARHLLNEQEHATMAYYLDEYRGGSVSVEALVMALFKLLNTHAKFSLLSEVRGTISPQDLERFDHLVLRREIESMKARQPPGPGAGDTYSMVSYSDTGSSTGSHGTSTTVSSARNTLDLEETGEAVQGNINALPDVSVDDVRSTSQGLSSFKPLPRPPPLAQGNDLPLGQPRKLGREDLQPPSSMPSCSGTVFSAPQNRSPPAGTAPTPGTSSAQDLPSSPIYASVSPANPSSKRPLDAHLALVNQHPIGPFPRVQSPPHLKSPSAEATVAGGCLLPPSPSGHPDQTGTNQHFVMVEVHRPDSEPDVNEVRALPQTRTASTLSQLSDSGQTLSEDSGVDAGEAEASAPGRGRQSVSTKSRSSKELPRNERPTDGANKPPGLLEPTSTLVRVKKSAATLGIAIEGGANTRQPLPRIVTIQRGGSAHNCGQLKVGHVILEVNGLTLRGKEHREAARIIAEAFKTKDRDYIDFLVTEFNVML
Outline: as §1

Classification [1]	Classification [3]	Compound	pKd [2]	Classification [4]
–	5 (A450 nm of 4 more than 2× repeated)	PYSELNYETSHYPASPDSWV (Biotin-PYSELNYETSHYPASPDSWV) [catenin - delta 2]	–	2 (A450 nm 1-2)
3 (A450 nm 2-3)	1 (A450 nm 0-1)	ELLQFCRTPNPALKNGQYWV (Biotin-ELLQFCRTPNPALKNGQYWV)	–	–
1 (A450 nm 0-1)	1 (A450 nm 0-1)	PPATPSPRLALPAHHNATRL (Biotin-PPATPSPRLALPAHHNATRL) [Na+/Pi cotransporter 2]	–	1 (A450 nm 0-1)
–	4 (A450 nm 3-4)	CC[C@H](C)[C@H](NC(=O)[C@H](CCC(=O)O)NC(=O)[C@H](CO)NC(=O)[C@H](CCC(=O)O)NC(=O)[C@H](CCCNC(=N)N)NC(=O)[C@H](CCCNC(=N)N)NC(=O)[C@H](CC(C)C)NC(=O)[C@@H]1CCCN1C(=O)[C@H](CCCNC(=N)N)NC(=O)[C@@H]1CCCN1C(=O)[C@H](CCC(=O)O)NC(=O)[C@H](CC(C)C)NC(=O)[C@@H]1CCCN1C(=O)[C@@H](NC(=O)[C@H](CO)NC(=O)[C@H](C)NC(=O)[C@H](CCC(N)=O)NC(=O)[C@H](CC(N)=O)NC(=O)[C@H](Cc1c[nH]cn1)NC(=O)[C@H](CC(C)C)NC(=O)CCCC[C@@H]1SC[C@@H]2NC(=O)N[C@@H]21)C(C)C)C(=O)O [Kir2.1 (inwardly rect. K+ channel)] (Biotin-LHNQASVPLEPRPLRRESEI-OH; C-terminus assumed)	–	–

The next lines start with the compound.

Compound	Classification [1]	Classification [3]	pKd [2]	Classification [4]
A2AC_HUMAN (Modified) (Biotin-DFRPSFKHILFRRARRGFRQ; not fully specified)	3 (A450 nm 2-3)	–	–	–
CC[C@H](C)[C@H](NC(=O)[C@H](CCC(N)=O)NC(=O)[C@@H](NC(=O)[C@H](Cc1c[nH]cn1)NC(=O)[C@H](CCC(N)=O)NC(=O)[C@H](CC(=O)O)NC(=O)[C@H](CCC(=O)O)NC(=O)[C@H](CC(=O)O)NC(=O)[C@H](Cc1ccccc1)NC(=O)[C@@H]1CCCN1C(=O)[C@H](CCC(=O)O)NC(=O)[C@H](CC(N)=O)NC(=O)[C@H](CCC(=O)O)NC(=O)[C@@H]1CCCN1C(=O)[C@H](CC(=O)O)NC(=O)[C@H](CO)NC(=O)[C@H](CC(=O)O)NC(=O)CCCC[C@@H]1SC[C@@H]2NC(=O)N[C@@H]21)[C@@H](C)O)C(=O)N[C@H](C(=O)N[C@@H](CCCCN)C(=O)N[C@H](C(=O)O)C(C)C)[C@@H](C)O [PTEN]	–	–	5.82	–
CC[C@H](C)[C@H](NC(=O)[C@H](CCC(=O)O)NC(=O)[C@H](CC(N)=O)NC(=O)[C@H](CCCNC(=N)N)NC(=O)[C@H](Cc1ccccc1)NC(=O)[C@H](CC(N)=O)NC(=O)[C@H](CO)NC(=O)[C@H](CC(N)=O)NC(=O)[C@H](CCC(=O)O)NC(=O)[C@H](CO)NC(=O)[C@H](CC(=O)O)NC(=O)[C@H](CO)NC(=O)[C@@H](NC(=O)[C@@H](NC(=O)[C@H](CC(=O)O)NC(=O)[C@H](CCCCN)NC(=O)CCCC[C@@H]1SC[C@@H]2NC(=O)N[C@@H]21)[C@@H](C)CC)[C@@H](C)O)C(=O)N[C@@H](CCC(N)=O)C(=O)N[C@@H](CO)C(=O)N[C@@H](CC(C)C)C(=O)N[C@H](C(=O)O)C(C)C [CD95] (Biotin-KDITSDSENSNFRNEIQSLV-OH; C-terminus assumed)	–	1 (A450 nm 0-1)	–	–
CC(C)C[C@H](NC(=O)CNC(=O)[C@@H](NC(=O)[C@H](CO)NC(=O)[C@H](CC(N)=O)NC(=O)[C@H](Cc1ccccc1)NC(=O)CNC(=O)[C@H](C)NC(=O)[C@H](C)NC(=O)[C@H](Cc1ccccc1)NC(=O)[C@@H](NC(=O)CCCC[C@@H]1SC[C@@H]2NC(=O)N[C@@H]21)[C@@H](C)O)[C@@H](C)O)C(=O)N1CCC[C@H]1C(=O)N[C@@H](Cc1c[nH]cn1)C(=O)N[C@@H](CO)C(=O)N[C@H](C(=O)N[C@H](C(=O)N[C@@H](CCCNC(=N)N)C(=O)N[C@H](C(=O)O)C(C)C)[C@@H](C)O)[C@@H](C)O [Neuroligin] (Biotin-TFAAGFNSTGLPHSTTRV-OH; C-terminus assumed)	–	–	6.52	–
CC(C)C[C@H](NC(=O)[C@H](CCCNC(=N)N)NC(=O)CNC(=O)CNC(=O)[C@H](CCCNC(=N)N)NC(=O)[C@H](C)NC(=O)[C@@H]1CCCN1C(=O)[C@H](CCCNC(=N)N)NC(=O)CNC(=O)CNC(=O)[C@@H](NC(=O)[C@H](C)NC(=O)CCCC[C@@H]1SC[C@@H]2NC(=O)N[C@@H]21)C(C)C)C(=O)N[C@@H](CCC(N)=O)C(=O)NCC(=O)N[C@@H](CCCNC(=N)N)C(=O)N[C@@H](CCCNC(=N)N)C(=O)N[C@@H](CCC(N)=O)C(=O)N[C@H](C(=O)N[C@@H](CCC(N)=O)C(=O)N[C@H](C(=O)O)C(C)C)[C@@H](C)O [HPV E6 58 (modified)] (Biotin-AVGGRPARGGRLQGRRQTQV-OH; C-terminus assumed)	–	5 (A450 nm of 4 more than 2× repeated)	–	1 (A450 nm 0-1)
ALVLIAFCIIRRRPSAYQAL (Biotin-ALVLIAFCIIRRRPSAYQAL) [CD68]	2 (A450 nm 1-2)	–	–	–
A2AA_HUMAN (modified) (Biotin-HDFRRAFKKILARGDRKRIV; not fully specified)	1 (A450 nm 0-1)	–	–	4 (A450 nm 3-4)
CC(C)C[C@H](NC(=O)[C@H](C)NC(=O)[C@@H](NC(=O)[C@H](CCC(=O)O)NC(=O)[C@H](CCCNC(=N)N)NC(=O)[C@H](CCCNC(=N)N)NC(=O)CNC(=O)[C@H](CCC(N)=O)NC(=O)[C@H](CC(C)C)NC(=O)[C@H](CCCNC(=N)N)NC(=O)CNC(=O)CNC(=O)[C@H](CCCNC(=N)N)NC(=O)[C@H](C)NC(=O)[C@H](CO)NC(=O)[C@H](CCCNC(=N)N)NC(=O)CNC(=O)CNC(=O)[C@H](C)NC(=O)[C@H](C)NC(=O)CCCC[C@@H]1SC[C@@H]2NC(=O)N[C@@H]21)[C@@H](C)O)C(=O)O [HPV E6 33 (modified)] (Biotin-AAGGRSARGGRLQGRRETAL-OH; C-terminus assumed)	3 (A450 nm 2-3)	5 (A450 nm of 4 more than 2× repeated)	–	1 (A450 nm 0-1)
ISGTPTSTMVHGMTSSSSVV (Biotin-ISGTPTSTMVHGMTSSSSVV) [Clasp-2]	–	1 (A450 nm 0-1)	–	–
CC[C@H](C)[C@H](NC(=O)[C@H](CCC(N)=O)NC(=O)CCCC[C@@H]1SC[C@@H]2NC(=O)N[C@@H]21)C(=O)N[C@@H](CO)C(=O)N1CCC[C@H]1C(=O)NCC(=O)NCC(=O)N[C@@H](CC(C)C)C(=O)N[C@@H](CCC(=O)O)C(=O)N1CCC[C@H]1C(=O)N1CCC[C@H]1C(=O)N[C@@H](CO)C(=O)N[C@@H](CCC(=O)O)C(=O)N[C@@H](CCCCN)C(=O)N[C@@H](Cc1c[nH]cn1)C(=O)N[C@@H](Cc1ccccc1)C(=O)N[C@@H](CCCNC(=N)N)C(=O)N[C@@H](CCC(=O)O)C(=O)N[C@H](C(=O)N[C@@H](CCC(=O)O)C(=O)N[C@H](C(=O)O)C(C)C)[C@@H](C)O [Tax]	–	5 (A450 nm of 4 more than 2× repeated)	–	3 (A450 nm 2-3)
